Laboratory results: the DeepSol protein solubility set

assay: soluble on expression in E. coli; label from the status in PepcDB or PDB records

| Sequence | soluble on expression in E. coli |
| --- | --- |
| MKHHHHHHPMSGLVPRGSAMGEPLASASKFSSIVSNDIDMNFRSFKFWVHNDNLMEVKTRILRHLPVLVYANVPSENDDLVNRFESDISNNDEIVGSSSSTSSVEHGLGARSFDPLINTLYFDNEHFELYNDKLLKLNSAPTLRLRWTGQLSDKPDIFLEKKTLIEDEATGKSEFDLTKLQLKQKFINGFIFEGDKKFKEQTLKKLKESGTAGRDLERLEEDFSEIQNFIIKNELQPVFRTVYTRTAFQIPGDDKIRVTIDSNIVFIKEDSFDRERPIRDPNTWHRTDIDANVANPLKFLRGGEYAKFPYSVMEIKVKSSLDSSMSASSMISNVKLPKKHGQWLNDLTNSHLVKEIPKFSIFVQGVASLYGDDEKLDILPFWLPDLETDIRQ | soluble |
| MPPRRYNPDTRRDELLERINLDIPGAVAQALREDLGGTVDANNDITAKLLPENSRSHATVITRENGVFCGKRWVEEVFIQLAGDDVTIIWHVDDGDVINANQSLFELEGPSRVLLTGERTALNFVQTLSGVASKVRHYVELLEGTNTQLLDTRKTLPGLRSALKYAVLCGGGANHRLGLSDAFLIKENHIIASGSVRQAVEKASWLHPDAPVEVEVENLEELDEALKAGADIIMLDNFETEQMREAVKRTNGKALLEVSGNVTDKTLREFAETGVDFISVGALTKHVQALDLSMRFR | soluble |
| LSDKLMERLKERAEGIFVSGPPGSGKSTFVAALAEFYRSQGKIVKTMESPRDLQVSKEITQYAPLEGDMEKTCDILLLVRPDYTIYDEVRKTRDFEIFADMRMAGVGMVGVVHASKPIDAIQRLIGRVELGVIPQVVDTVIFIKDGKIQKVYEIDFTVKVPYG | not soluble |
| MGSDKIHHHHHHMELVIRDIRKRFQETEVLRGASYRFYSGKITGVLGRNGAGKTTLFNILYGDLAADNGTICLLKDNHEYPLTDKDIGIVYSENYLPEFLTGYEFVKFYMDLHPSDDLMTIDDYLDFMEIGQTERHRIIKGYSDGMKSKLSLICLMISKPKVILLDEPLTAVDVVSSIAIKRLLLELSEDHIIILSTHIMALAEDLCDIVAVLDKGKLQTLDIDRKHEQFEERLLQVLKGDEYDK | not soluble |
| MQNAGSLVVLGSINADHILNLQSFPTPGETVTGNHYQVAFGGKGANQAVAAGRSGANIAFIACTGDDSIGESVRQQLATDNIDITPVSVIKGESTGVALIFVNGEGENVIGIHAGANAALSPALVEAQRERIANASALLMQLESPLESVMAAAKIAHQNKTIVALNPAPARELPDELLALVDIITPNETEAEKLTGIRVENDEDAAKAAQVLHEKGIRTVLITLGSRGVWASVNGEGQRVPGFRVQAVDTIAAGDTFNGALITALLEEKPLPEAIRFAHAAAAIAVTRKGAQPSVPWREEIDAFLDRQR | soluble |
| MRMFSVQPIAFVHNERKEIKDDEWGEVRSRITLTEMYAEKSIQGIEDFSHIEVVFYFHKVTDEQIQYFARHPRNNKDYPEVGIFAQRGKNRPNRIGVTIVKVIKREGKSIIVEGLDAIDGTPILDIKPIMKEFMPTEEIHQPKWATDIMRQYWKGNVVKLEHHHHHH | soluble |
| VADATTLAVVGPGVMAKTITEACIAERPGITTIKIKGRSERGINAFATWALEKFPEIEVVAVGSEEDVVKDADIVIAATTTDAAGSSAFPYFKKEWLKPGALLLLPAAGRFDDAYLLDDARLVVDYMGLYEAWAEEYGPQAYQLLGIPGTHWYDLALQGKLDLAKISQIGDICSGKLPGRTNDEEIILYSVGG | not soluble |
| ERVPEGSIRVAIASNNGEQLDGHFGSCLRFLVYQVSAKDASLVDIRSTLDVALAEDKNAWRVEQIQDCQVLYVVSIGGPAAAKVVRAGIHPLKKPKGCAAQEAIAELQTVMAGSPPPWLAKLVGVSAEERVRFSVSDDEDEAARA | soluble |
| MDNRNHSANVLIHLHMPKTGGTTLKKIIKRNYDSRKSVDVYEEHHKLPGIFKGLSKQNIECVQGHLPFGVHEYFNRPTTYITMLRDPVDRVISEYYFIRNIEWHNLHESVMKMSLEEYQGLPKNRNLQTRYILGGQLTSVTEVNRAKNILKNHFAVVGLTEKFDASLFLMKEMFNWKQVAYQKYNVTKKRRSKEEISPKLLEKIAKNNEADLELYAFAKELLAKRIRALDPLSAYRLKRFERKHQQGFHGKRDRMAGDPLEHHHHHH | soluble |
| MKATLHPYQEYSKNFILDHPYCALMLDMGLGKTLSSLTAIDELLHTFEIIENVLVIAPLSVAEKTWTDEIEKWDHLQHLTFSKVLGNPKQREEALFKKADVYLINRENVEWLVNYYQRNWPFKTVIIDELSSFKSSSAKRFKALRKVRPKMERVIGLTGTPSPNSLMDLWAQMYLLDQGERLGKTITQYRNKYFVPAQKNGHIVYSWQLIPGAEEAIYNKISDICVSMKAKDYLRLPPRTENIIELDLNPTSWKQYKELEREYVLELEGTDVVASNAATLSNKLLQLSNGAVYDENGDGREIHQEKLNALERVIEDAQGQSVLVFYQYQHDLERIQARFKQAKALNVSDGDIEKWNEGKISLLLAHPQSAGHGLNLQKGGHIIVWFGLTWSLEFYQQANARLDRQGQTQPVIIHHLVTKGTIDEQVIKALQAKEQGQSALMAAVKAKIEEYRGDKLG | not soluble |
| MDAEEIRAIFRFSAMEKNMIYSFGIQGDLFLPFLLSLKSGGSWSYATEETKSIAVKDVITYYDEESKTGYTLEKIYFFIDPEVVAKEGVVRRLEKCGTKEERELVERPYIIALRAKRIIFAEVNPGSRKITVRELEKKCIQLKGTPAYSAAHELEHLKKGEVEGIPLWSFEYVKDQ | not soluble |
| MGSDKIHHHHHHMLVVPAIDLFRGKVARMIKGRKENTIFYEKDPVELVEKLIEEGFTLIHVVDLSNAIENSGENLPVLEKLSEFAEHIQIGGGIRSLDYAEKLRKLGYRRQIVSSKVLEDPSFLKSLREIDVEPVFSLDTRGGRVAFKGWLAEEEIDPVSLLKRLKEYGLEEIVHTEIEKDGTLQEHDFSLTKKIAIEAEVKVLAAGGISSENSLKTAQKVHTETNGLLKGVIVGRAFLEGILTVEVMKRYAR | not soluble |
| MISNDAIRRNMAVFSMSVVSKLTDLTPRQIRYYETHELIKPERTEGQKRLFSLNDLERLLEIKSLLEKGFNIKGIKQIIYDSQEHLTTDEQEIRKKMIVDATQKPIGETLPINRGDLSRFIK | not soluble |
| MIEFRQVSKTFNKKKQKIDALKDVSFTVNRNDIFGVIGYSGAGKSTLVRLVNHLEAASNGQVIVDGHDITNYSDKMMRDIKKDIGMIFQHFNLLNSATVFKNVAMPLILSKKSKTEIKQRVTEMLEFVGLSDKKDQFPDELSGGQKQRVAIARALVTNPKILLCDEATSALDPATTASILTLLKNVNQTFGITIMMITHEMRVIKDICNRVAVMEKGKVVETGTVKEVFSHPKTTIAQNFVSTVIQTEPSTSLIRRLNDEQVGDFKDYKIFVEETQVTQPIINDLIQICGREVKILFSSMSEIQGNTVCYMWLRFNMDQQFEDTAINQYFKEKNIQFEEVH | not soluble |
| MSYNLNLSHNIYKDAKLGTYYFRITYYDKSNTRKYITRKGFKQRKDAVKKCNEMMDELEGVGHLNRLPFDKLVEEYIDWYSARRKTSSVKALKTHTNNHLLPYFKSMDVFKMTTQDVMKFQNKKLKEGHSGDYLKKMHVYLVSLLNHAMKFHELKQNVASLVGNFEIESQKRLNYWTLEQFNQFYEALATQQQKLFFKLLFYSGARKGEIRALTWRDINFDDDFIHINKTDYHGEVTAPKTKSAIRDIYLPTHMMYDIKDYLIWYKENNIYKDDYVLFGTFYKAYSESTIDRW | not soluble |
| MGDTMQQRLTQDLTQFLASLPEDDRIKAINEIRMAIHQVSPFREEPVDCVLWVKNSQLMPNDYNPNNVAPPEKKLLQKSIEIDGFTQPIVVTHTDKNAMEIVDGFHRHEIGKGSSSLKLRLKGYLPVTCLEGTRNQRIAATIRHNRARGRHQITAMSEIVRELSQLGWDDNKIGKELGMDSDEVLRLKQINGLQELFADRQYSRAWTVK | soluble |
| MVSAKDFSGAELYTLEEVQYGKFEARMKMAAASGTVSSMFLYQNGSEIADGRPWVEVDIEVLGKNPGSFQSNIITGKAGAQKTSEKHHAVSPAADQAFHTYGLEWTPNYVRWTVDGQEVRKTEGGQVSNLTGTQGLRFNLWSSESAAWVGQFDESKLPLFQFINWVKVYKYTPGQGEGGSDFTLDWTDNFDTFDGSRWGKGDWTFDGNRVDLTDKNIYSRDGMLILALTRKGQESFNGQVPRD | soluble |
| SNAMDFHIRKATNSDAEAIQHVATTSWHHTYQDLIPSDVQDDFLKRFYNVETLHNRISATPFAVLEQADKVIGFANFIELEKGKSELAAFYLLPEVTQRGLGTELLEVGMTLFHVPLPMFVNVEKGNETAIHFYKAKGFVQVEEFTEDFYGYPLETIRFNLNH | soluble |
| MAETNKGIEEEVASAFVNHYYHLFDNDRSSLSSLYNPTSLLTFEGQTIYGVDNISNKLKQLPFDQCHHLISTVDSQPSSMAGGCGGILVFVSGSIQLHGEDHPLRFSQVYLLSICNRFEGFIWLKQS | not soluble |
| GSHMSPSDLHLPVPGHPIAAIATPVGVGALAIVRISGAGVLDLADRVFRKVHGSGKLAEAAGYTAHFGRLYDGEEMVDEVIALVFRAPRSFTAEQMVEFTCHGGPVVVGRVLRLMLDNGCRLAEPGEFTRRAFLNGRIDLLQAEAIGEMIHARTESAYRTAVSQMKGDLSVRLGGLREQLIRSCALIELELDFSEEDVEFQSRDELTMQIETLRSEVNRLIDSYQHGRIVSEGVSTVIAGKPNAGKSTLLNTLLGQERAIVSHMPGTTRDYIEECFIHDKTMFRLTDTAGLREAGEEIEHEGIRRSRMKMAEADLILYLLDLGTERLDDELTEIRELKAAHPAAKFLTVANKLDRAANADALIRAIADGTGTEVIGISALNGDGIDTLKQHMGDLVKNLDKLHEASVLVTSLRHYEALRNASDALQNALELIAHESETELIAFELRAALDYVGQITGKVVNEEVLNTIFDKFCIGK | soluble |
| MSRRSRSRSRSPKRDREERKRREDRDRDRERKRDRKDRERKRRHRSSSSEGSQAEPHQLGSIFREERRRRERNESPKLPPPPPPPPSDPPVDTSIPFDVSTLNEPTKKWLEEKIVEQVSARVHQLEAMMAEKATSARNEMEKMLRAQIEAEMAVELAECKKRDEESRKKCKQLEAELERKVLEAEESRKKFEEDRLAMLEQKSQLERDRAELARQKSDMKKNEQQAILNKSGNSRAPIKFKFGK | not soluble |
| MFSVNNTHSSVSCSPSINSNSTSNEHYLRILTEWEKNSSPGEERGIAFNRLSQCFQNQEAVLNLSDLNLTSLPELPKHISALIVENNKLTSLPKLPAFLKELNADNNRLSVIPELPESLTTLSVRSNQLENLPVLPNHLTSLFVENNRLYNLPALPEKLKFLHVYYNRLTTLPDLPDKLEILCAQRNNLVTFPQFSDRNNIRQKEYYFHFNQITTLPESFSQLDSSYRINISGNPLSTRVLQSLQRLTSSPDYHGPQIYFSMSDGQQNTLHRPLADAVTAWFPENKQSDVSQIWHAFEHEEHANTFSAFLDRLSDTVSARNTSGFREQVAAWLEKLSASAELRQQSFAVAADATESCEDRVALTWNNLRKTLLVHQASEGLFDNDTGALLSLGREMFRLEILEDIARDKVRTLHFVDEIEVYLAFQTMLAEKLQLSTAVKEMRFYGVSGVTANDLRTAEAMVRSREENEFTDWFSLWGPWHAVLKRTEADRWAQAEEQKYEMLENEYSQRVADRLKASGLSGDADAEREAGAQVMRETEQQIYRQLTDEVLALRLSENGSRLHHS | not soluble |
| MNGRVDYLVTEEEINLTRGPSGLGFNIVGGTDQQYVSNDSGIYVSRIKENGAAALDGRLQEGDKILSVNGQDLKNLLHQDAVDLFRNAGYAVSLRVQHRLQVQNGPI | soluble |
